Measurements as given in patent US20100260765A1 (AstraZeneca / MedImmune, published 2010).

What was measured:
[1] = molecular target: T1, human KDR (human, UniProt P35968 20-1356); assay: cell-based or functional assay
[2] = molecular target: T2, soluble KDR Ig4-7 domain (human, UniProt P35968 328-764); assay: ELISA, KDR Ig4-7 coat (1:1 diln.), antibody 0.01 ug/mL
T2 construct: domain: Ig4-7 domain; also called b-KDRIg4-7-myc-his; Ig4-7 domain of KDR; not shown: myc-his tag of the pSecTag construct
T2 sequence (P35968 328-764): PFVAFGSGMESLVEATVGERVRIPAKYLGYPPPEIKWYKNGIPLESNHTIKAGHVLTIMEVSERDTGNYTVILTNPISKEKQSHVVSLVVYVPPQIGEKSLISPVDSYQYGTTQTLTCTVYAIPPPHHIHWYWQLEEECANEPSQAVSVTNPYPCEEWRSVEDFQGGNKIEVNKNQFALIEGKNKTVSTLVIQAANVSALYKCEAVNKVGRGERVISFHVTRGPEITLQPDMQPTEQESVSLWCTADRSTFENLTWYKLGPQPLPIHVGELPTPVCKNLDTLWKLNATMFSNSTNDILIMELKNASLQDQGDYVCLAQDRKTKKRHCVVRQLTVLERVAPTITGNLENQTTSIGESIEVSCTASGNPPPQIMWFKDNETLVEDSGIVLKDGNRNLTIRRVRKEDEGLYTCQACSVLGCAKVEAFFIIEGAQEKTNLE
Protocol: (§1) The cross-reactivity of purified antibodies was tested against KDR mouse ortholog KDR mouse ortholog (mouse VEGFR2, or Flk-1) and human VEGFR1 (Flt-1). The ability of the antibodies to bind soluble KDR Ig4-7 domain and to the entire KDR extracellular domain (ECD) was also measured.
(§2) Cross-reactivity experiments were carried out and measured using an ELISA based assay as described in Example 6. […] Antibody controls included IgG1 and IgG4 (Sigma-Aldrich, Cat. #15154 and #14639, respectively).

[3] = molecular target: T3, whole KDR-ECD (Cat. # 676490, Calbiochem) (human, UniProt P35968 20-764); assay: ELISA, KDR-ECD coat 5 ug/mL, antibody 1 ug/mL
T3 construct: extracellular domain; Bought soluble protein; also called soluble KDR; VEGF Receptor 2 D1-7
T3 sequence (P35968 20-764): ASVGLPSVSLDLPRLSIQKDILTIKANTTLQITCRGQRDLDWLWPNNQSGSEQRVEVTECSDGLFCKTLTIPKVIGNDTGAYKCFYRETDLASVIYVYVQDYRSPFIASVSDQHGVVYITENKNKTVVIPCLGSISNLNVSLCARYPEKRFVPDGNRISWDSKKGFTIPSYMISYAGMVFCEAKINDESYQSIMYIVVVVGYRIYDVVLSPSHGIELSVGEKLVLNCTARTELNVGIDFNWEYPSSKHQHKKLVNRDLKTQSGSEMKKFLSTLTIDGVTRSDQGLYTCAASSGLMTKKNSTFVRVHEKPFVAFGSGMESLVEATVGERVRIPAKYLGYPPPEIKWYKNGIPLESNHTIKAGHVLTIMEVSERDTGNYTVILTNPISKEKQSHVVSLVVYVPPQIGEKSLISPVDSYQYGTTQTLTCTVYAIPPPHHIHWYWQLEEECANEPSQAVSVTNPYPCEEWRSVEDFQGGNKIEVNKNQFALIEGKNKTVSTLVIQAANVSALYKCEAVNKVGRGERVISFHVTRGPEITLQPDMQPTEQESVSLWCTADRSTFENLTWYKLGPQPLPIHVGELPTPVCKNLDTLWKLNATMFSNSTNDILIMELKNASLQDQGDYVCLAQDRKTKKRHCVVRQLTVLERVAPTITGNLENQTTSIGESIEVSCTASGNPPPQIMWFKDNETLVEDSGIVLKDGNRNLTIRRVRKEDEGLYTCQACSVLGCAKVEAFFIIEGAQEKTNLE
Protocol: as §1, §2

[4] = molecular target: T4, mouse KDR (Flk-1)/Fc (Cat. #443-KD/CF, R&D Systems, Inc.) (mouse, UniProt P35918 20-762); assay: ELISA, Flk-1 coat 5 ug/mL, antibody 0.01 ug/mL
T4 construct: Bought reagent; also called mouse VEGFR2; KDR mouse ortholog; not shown: Fc of the bought fusion protein
T4 sequence (P35918 20-762 limits assumed): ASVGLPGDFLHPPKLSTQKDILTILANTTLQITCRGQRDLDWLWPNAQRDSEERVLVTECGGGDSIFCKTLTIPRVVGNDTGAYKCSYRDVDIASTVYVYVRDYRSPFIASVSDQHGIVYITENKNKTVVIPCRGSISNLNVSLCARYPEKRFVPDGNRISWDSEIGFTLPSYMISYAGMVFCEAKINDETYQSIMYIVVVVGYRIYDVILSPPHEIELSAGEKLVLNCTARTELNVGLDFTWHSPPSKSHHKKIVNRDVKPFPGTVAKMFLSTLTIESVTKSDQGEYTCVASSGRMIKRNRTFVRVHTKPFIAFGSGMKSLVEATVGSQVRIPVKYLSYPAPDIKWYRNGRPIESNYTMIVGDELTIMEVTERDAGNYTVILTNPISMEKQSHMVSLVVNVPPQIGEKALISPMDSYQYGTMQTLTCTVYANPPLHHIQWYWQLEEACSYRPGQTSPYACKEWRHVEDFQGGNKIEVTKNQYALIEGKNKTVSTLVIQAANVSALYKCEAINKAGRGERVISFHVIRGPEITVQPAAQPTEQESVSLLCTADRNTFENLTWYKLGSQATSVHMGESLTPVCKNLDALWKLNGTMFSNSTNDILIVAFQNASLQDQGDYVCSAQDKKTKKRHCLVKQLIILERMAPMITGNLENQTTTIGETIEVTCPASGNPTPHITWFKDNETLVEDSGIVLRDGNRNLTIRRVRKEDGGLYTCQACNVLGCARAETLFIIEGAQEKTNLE
Protocol: as §1, §2

[5] = molecular target: T1, human KDR; assay: FACS competition on 293T/human KDR transfectants; antibody 5 ug/mL first, then competitor VEGF165 50 ng/mL; bound VEGF165 detected
Protocol: (§3) Transfected cells were then seeded at 50,000 cells/well and incubated with 5 μg/mL of candidate antibody for one hour at 4° C. […] After washing, the cells were incubated with Cy5-conjugated rabbit anti-goat antibody plus 7AAD for 15 minutes at 4° C.

[6] = molecular target: T1, human KDR; assay: cell-based or functional assay; remark: listed apart in the source
[7] = molecular target: T1, human KDR; assay: FACS titration of purified antibody on HUVEC cells (FACS Kd)
Protocol: The binding affinities of the purified antibodies for endogenously-expressed KDR in HUVEC cells was measured. HUVEC cells were seeded at 150,000 cells/well and incubated with titrations of purified antibody for 4 hours at 4° C. The cells were then washed and incubated with goat anti-human IgG-Fc-Cy5+5 μg/mL 7-Amino-Actinomycin (7AAD) for 30 minutes at 4° C. Bound KDR was detected using FACS analysis.

[8] = molecular target: T3, whole KDR-ECD (Cat. # 676490, …); assay: ELISA, KDR-ECD coat 5 ug/mL, antibody 0.01 ug/mL
Protocol: as §1, §2

[9] = molecular target: T4, mouse KDR (Flk-1)/Fc (Cat. #443-KD/CF, …); assay: ELISA, Flk-1 coat 5 ug/mL, antibody 0.1 ug/mL
Protocol: as §1, §2

[10] = molecular target: T2, soluble KDR Ig4-7 domain; assay: ELISA, KDR Ig4-7 coat (1:1 diln.), antibody 1 ug/mL
Protocol: as §1, §2

[11] = molecular target: T1, human KDR; assay: FACS competition on 293T/human KDR transfectants; antibody 5 ug/mL first, then competitor VEGF165 50 ng/mL; inhibition of VEGF binding
Protocol: as §3

[12] = molecular target: T2, soluble KDR Ig4-7 domain; assay: ELISA, KDR Ig4-7 coat (1:1 diln.), antibody 0.1 ug/mL
Protocol: as §1, §2

[13] = molecular target: T4, mouse KDR (Flk-1)/Fc (Cat. #443-KD/CF, …); assay: ELISA, Flk-1 coat 5 ug/mL, antibody 1 ug/mL
Protocol: as §1, §2

[14] = molecular target: T5, cynomolgus KDR (cynomolgus monkey, UniProt A0A2K5VE63 20-1356); assay: FACS on Cyno KDR/293T transfectants, antibody 5 ug/mL
T5 construct: whole, on cells; also called Cyno KDR
T5 sequence (A0A2K5VE63 entry or part of it): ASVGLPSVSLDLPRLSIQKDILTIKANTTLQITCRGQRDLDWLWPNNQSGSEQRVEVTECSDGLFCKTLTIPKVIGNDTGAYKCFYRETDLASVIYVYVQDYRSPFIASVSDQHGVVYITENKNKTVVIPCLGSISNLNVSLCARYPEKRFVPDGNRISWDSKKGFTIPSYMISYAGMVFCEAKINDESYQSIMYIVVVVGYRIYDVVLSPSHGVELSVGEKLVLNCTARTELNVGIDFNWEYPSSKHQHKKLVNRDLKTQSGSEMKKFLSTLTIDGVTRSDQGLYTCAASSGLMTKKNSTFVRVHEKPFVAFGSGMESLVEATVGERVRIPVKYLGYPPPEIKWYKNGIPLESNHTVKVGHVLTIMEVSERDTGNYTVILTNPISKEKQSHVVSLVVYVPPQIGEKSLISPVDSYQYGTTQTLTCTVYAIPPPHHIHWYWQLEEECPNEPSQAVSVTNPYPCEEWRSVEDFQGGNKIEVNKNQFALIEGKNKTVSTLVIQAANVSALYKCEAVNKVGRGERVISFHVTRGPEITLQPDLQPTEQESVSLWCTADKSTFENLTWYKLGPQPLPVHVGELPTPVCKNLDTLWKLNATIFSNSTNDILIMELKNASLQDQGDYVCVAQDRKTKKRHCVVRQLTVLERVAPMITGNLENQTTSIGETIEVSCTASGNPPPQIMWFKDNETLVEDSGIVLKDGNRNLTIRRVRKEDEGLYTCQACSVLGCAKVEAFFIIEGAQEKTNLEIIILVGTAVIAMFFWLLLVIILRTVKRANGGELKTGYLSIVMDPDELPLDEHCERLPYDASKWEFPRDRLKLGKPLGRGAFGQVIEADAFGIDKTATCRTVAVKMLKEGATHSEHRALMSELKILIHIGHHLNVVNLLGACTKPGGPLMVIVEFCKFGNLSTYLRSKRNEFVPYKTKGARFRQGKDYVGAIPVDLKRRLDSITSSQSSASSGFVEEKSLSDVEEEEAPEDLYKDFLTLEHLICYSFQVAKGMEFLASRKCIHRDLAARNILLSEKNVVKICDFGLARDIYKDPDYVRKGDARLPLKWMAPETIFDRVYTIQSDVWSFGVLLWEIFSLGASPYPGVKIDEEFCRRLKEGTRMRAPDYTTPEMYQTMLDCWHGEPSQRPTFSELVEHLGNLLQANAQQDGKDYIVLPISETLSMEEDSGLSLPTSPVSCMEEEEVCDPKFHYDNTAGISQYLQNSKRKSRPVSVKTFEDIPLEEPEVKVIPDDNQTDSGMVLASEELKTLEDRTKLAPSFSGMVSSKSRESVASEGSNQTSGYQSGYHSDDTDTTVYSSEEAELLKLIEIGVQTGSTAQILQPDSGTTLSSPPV
Protocol: The binding of purified antibodies to cell-bound cynomolgus KDR (with parental cells as negative control) was tested by FACS analysis in this assay.
Cynomolgus KDR was cloned in 3 pieces. One piece was PCR amplified from cynomolgus lung cDNA, and the remaining two pieces were PCR amplified from cynomolgus kidney cDNA. The three PCR products were inserted into pCR3.1 Bid vector. […] Transfected cells were seeded at 50,000 cells/well and incubated with 5 μg/mL of candidate antibody for one hour at 4° C. The cells were then washed and incubated with secondary antibody (Cy5-conjugated goat anti-human antibody, or Cy5-conjugated rabbit anti-goat antibody, plus 7-Amino-Actinomycin (7AAD)) for 15 minutes at 4° C. Binding between cynomolgus KDR and purified antibody was detected by FACS analysis.

[15] = molecular target: T3, whole KDR-ECD (Cat. # 676490, …); assay: ELISA, KDR-ECD coat 5 ug/mL, antibody 0.1 ug/mL
Protocol: as §1, §2

[16] = molecular target: T1, human KDR; assay: cell-based or functional assay; remark: listed apart in the source

T1 sequence (P35968 20-1356): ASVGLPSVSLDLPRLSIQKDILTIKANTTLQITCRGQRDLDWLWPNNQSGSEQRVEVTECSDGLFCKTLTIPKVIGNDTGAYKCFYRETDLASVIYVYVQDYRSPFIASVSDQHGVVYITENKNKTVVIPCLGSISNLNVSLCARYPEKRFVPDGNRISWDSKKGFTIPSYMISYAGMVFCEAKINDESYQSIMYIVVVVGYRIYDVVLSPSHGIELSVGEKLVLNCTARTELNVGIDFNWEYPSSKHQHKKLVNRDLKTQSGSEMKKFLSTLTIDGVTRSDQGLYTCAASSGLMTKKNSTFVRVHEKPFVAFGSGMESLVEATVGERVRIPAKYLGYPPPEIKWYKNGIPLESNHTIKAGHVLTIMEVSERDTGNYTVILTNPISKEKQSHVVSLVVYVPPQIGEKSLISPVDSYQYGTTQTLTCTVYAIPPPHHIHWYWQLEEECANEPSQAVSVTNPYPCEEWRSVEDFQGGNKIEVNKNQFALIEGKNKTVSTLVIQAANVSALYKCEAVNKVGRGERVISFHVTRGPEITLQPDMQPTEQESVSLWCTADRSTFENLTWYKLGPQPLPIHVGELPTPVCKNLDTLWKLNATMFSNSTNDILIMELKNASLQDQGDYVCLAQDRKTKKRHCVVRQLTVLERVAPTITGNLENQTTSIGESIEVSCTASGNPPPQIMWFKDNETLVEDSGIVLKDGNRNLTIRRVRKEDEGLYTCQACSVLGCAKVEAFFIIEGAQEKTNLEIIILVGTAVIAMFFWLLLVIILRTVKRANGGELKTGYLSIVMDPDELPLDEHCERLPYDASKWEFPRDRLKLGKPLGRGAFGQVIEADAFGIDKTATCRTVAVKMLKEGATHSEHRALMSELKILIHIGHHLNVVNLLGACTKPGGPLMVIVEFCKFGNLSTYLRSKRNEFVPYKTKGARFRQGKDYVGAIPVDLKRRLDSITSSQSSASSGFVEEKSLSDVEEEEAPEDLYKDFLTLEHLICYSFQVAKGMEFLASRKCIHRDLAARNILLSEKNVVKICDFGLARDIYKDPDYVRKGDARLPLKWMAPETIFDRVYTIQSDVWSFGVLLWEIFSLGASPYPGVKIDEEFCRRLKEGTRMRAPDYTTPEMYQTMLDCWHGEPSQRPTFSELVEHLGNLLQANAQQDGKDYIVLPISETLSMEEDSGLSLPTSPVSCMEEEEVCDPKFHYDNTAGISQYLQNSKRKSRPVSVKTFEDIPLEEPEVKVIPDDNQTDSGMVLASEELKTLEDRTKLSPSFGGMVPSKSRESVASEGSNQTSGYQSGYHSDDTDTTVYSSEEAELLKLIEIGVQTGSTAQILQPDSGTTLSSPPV

| ELISA reading [2] | ELISA reading [3] | ELISA reading [4] | FACS Geometric Mean Fluorescence (bound VEGF165) [5] | 6-keto Prostaglandin F1α release, EC50 (nM), Average [6] [nM] | 6-keto Prostaglandin F1α release, EC50 (nM), N = 1 [6] [nM] | 6-keto Prostaglandin F1α release, EC50 (nM), N = 2 [6] [nM] | 6-keto Prostaglandin F1α release, Maximum Inhibition (% Inhibition), Average [6] [%] | 6-keto Prostaglandin F1α release, Maximum Inhibition (% Inhibition), N = 1 (200 nM) [6] [%] | 6-keto Prostaglandin F1α release, Maximum Inhibition (% Inhibition), N = 2 (333 nM) [6] [%] | Kd [7] [nM] | ELISA reading [8] | ELISA reading [9] | ELISA reading [10] | % Inhibition [11] [%] | ELISA reading [12] | ELISA reading [13] | Binder | HUVEC survival, Maximum Inhibition at 50 nM (% Inhibition), Average [1] [%] | HUVEC survival, Maximum Inhibition at 50 nM (% Inhibition), N = 1 [1] [%] | HUVEC survival, Maximum Inhibition at 50 nM (% Inhibition), N = 2 [1] [%] | also measured |
| --- | --- | --- | --- | --- | --- | --- | --- | --- | --- | --- | --- | --- | --- | --- | --- | --- | --- | --- | --- | --- | --- |
| 0.072 | 1.96 | 0.826 | 138 | 6.2 | 6.1 | 6.4 | 98 | 88 | 108 | 11.3 | 0.08 | 2.37 | 0.107 | -8 | 0.073 | 3.1 | 31E11 (antibody, V domains shown, Fully human monoclonal antibody from a XenoMouse hybridoma (IgG2 or IgG4 strain), purified) VH: QVQLVESGGGLVKPGGSLRLSCAASGFTFSDYYMSWIRQAPGKGLEWVSYISISGSTIYYADSVKGRFTISRDNAKNSLYLQMNSLRAEDTAVYYCARDDFWSGYYFNWFDPWGQGTLVTVSS VL: DIQMTQSPSSLSASVGDRVTITCRANQTISTFLNWYQQNPGKAPKLLIYAASSLQSGVPSRFSGSGSGTDFTLTISSLQPEDFATYYCQQTYIIPLTFGGGTKVEIK | 101 | 101 | 101 | FACS Geometric Mean Fluorescence [14]: 99.5; ELISA reading [15]: 0.161; KDR tyrosine phosphorylation in HUVEC, EC50 (nM), Average [16]: 1.9 nM; KDR tyrosine phosphorylation in HUVEC, EC50 (nM), N = 1 [16]: 2 nM; KDR tyrosine phosphorylation in HUVEC, EC50 (nM), N = 2 [16]: 1.9 nM; KDR tyrosine phosphorylation in HUVEC, Maximum Inhibition at 100 nM (% Inhibition), Average [16]: 85%; KDR tyrosine phosphorylation in HUVEC, Maximum Inhibition at 100 nM (% Inhibition), N = 1 [16]: 84%; KDR tyrosine phosphorylation in HUVEC, Maximum Inhibition at 100 nM (% Inhibition), N = 2 [16]: 86% |
| 0.609 | 1.99 | 0.753 | 81 | 3840 | 17 | 7670 | 53 | 31 | 76 | 0.2 | 0.072 | 2.1 | 3.04 | 40 | 2.14 | 3.12 | 33B1 (antibody, V domains shown, Fully human monoclonal antibody from a XenoMouse hybridoma (IgG2 or IgG4 strain), purified) VH: EVQLVESGGGLVKPGGSLRLSCAASGFTFSSYTMNWVRQAPGKGLEWVSFIDSRSSYIYYADSVKGRFTISRDNAKNSLYLQMNSLRAEDTAVYYCSKDDWFEELWGQGTLVTVSS VL: DIQMTQSPSSLSASVGDRVTITCRASQGIRNDLGWYQQKPGKAPKRLIYATSSLQSGVPSRFSGSGSGTEFTLTISSLQPEDFATYYCLHHNSFPWTFGQGTKVEIK | 57 | 55 | 59 | FACS Geometric Mean Fluorescence [14]: 108; ELISA reading [15]: 0.178; KDR tyrosine phosphorylation in HUVEC, EC50 (nM), Average [16]: 1.1 nM; KDR tyrosine phosphorylation in HUVEC, EC50 (nM), N = 1 [16]: 1.2 nM; KDR tyrosine phosphorylation in HUVEC, EC50 (nM), N = 2 [16]: 1.1 nM; KDR tyrosine phosphorylation in HUVEC, Maximum Inhibition at 100 nM (% Inhibition), Average [16]: 86%; KDR tyrosine phosphorylation in HUVEC, Maximum Inhibition at 100 nM (% Inhibition), N = 1 [16]: 86%; KDR tyrosine phosphorylation in HUVEC, Maximum Inhibition at 100 nM (% Inhibition), N = 2 [16]: 86% |
| 1.45 | 3.02 | 1.58 | 97 | 12.1 | 8.1 | 16.2 | 54 | 37 | 72 | 0.8 | 0.09 | 2.75 | 3.47 | 27 | 2.8 | 3.39 | 24B3 (antibody, V domains shown, Fully human monoclonal antibody from a XenoMouse hybridoma (IgG2 or IgG4 strain), purified) VH: EVQLVESGGGLVKPGGSLRLSCAASGFTFSTYSMNWVRQAPGKGLEWVSFISGRSSYIYYADSVKGRFTISRDNAKNSLYLQMNSLRAEDTAVYYCSKDDWFEELWGQGTLVTVSS VL: DIQMTQSPSSLSASVGDRVTITCRASQGIRSDLGWYQQKPGKAPKRLIYATSSLQSGVPSRFSGSGSGTEFTLTISSLQPEDFATYYCLQHNRYPWTFGQGTKVEIK | 90 | 97 | 82 | FACS Geometric Mean Fluorescence [14]: 68.4; ELISA reading [15]: 0.304; KDR tyrosine phosphorylation in HUVEC, EC50 (nM), Average [16]: 2.2 nM; KDR tyrosine phosphorylation in HUVEC, EC50 (nM), N = 1 [16]: 2.1 nM; KDR tyrosine phosphorylation in HUVEC, EC50 (nM), N = 2 [16]: 2.3 nM; KDR tyrosine phosphorylation in HUVEC, Maximum Inhibition at 100 nM (% Inhibition), Average [16]: 81%; KDR tyrosine phosphorylation in HUVEC, Maximum Inhibition at 100 nM (% Inhibition), N = 1 [16]: 78%; KDR tyrosine phosphorylation in HUVEC, Maximum Inhibition at 100 nM (% Inhibition), N = 2 [16]: 84% |
| 0.067 | 1.38 | 0.846 | 147 | 5.1 | 4.8 | 5.4 | 90 | 77 | 103 | 3.8 | 0.081 | 1.47 | 0.107 | -15 | 0.074 | 2.17 | 33E1 (antibody, V domains shown, Fully human monoclonal antibody from a XenoMouse hybridoma (IgG2 or IgG4 strain), purified) VH: QVQLQESGPGLVKPSQTLSLTCTVSGGSISSGDHYWSWIRQHPGKGLEWIGHIYYSGSTDYNPSLKSRVTISVDTSKNHFSLKLNSVTAADTAVYYCARTNSSSWSDWYFDLWGRGTLVTVSS VL: DIVMTQSPDSLAVSLGERATINCKSSQSILYSSNNKNYLAWYQRKPGQPPILLIHWASTRESGVPDRFSGSGSRTDFTLTISSLQAEDVAVYYCQQYFITPWTFGQGTKVEIK | 103 | 107 | 99 | FACS Geometric Mean Fluorescence [14]: 88.5; ELISA reading [15]: 0.205; KDR tyrosine phosphorylation in HUVEC, EC50 (nM), Average [16]: 5.5 nM; KDR tyrosine phosphorylation in HUVEC, EC50 (nM), N = 1 [16]: 5.8 nM; KDR tyrosine phosphorylation in HUVEC, EC50 (nM), N = 2 [16]: 5.1 nM; KDR tyrosine phosphorylation in HUVEC, Maximum Inhibition at 100 nM (% Inhibition), Average [16]: 74%; KDR tyrosine phosphorylation in HUVEC, Maximum Inhibition at 100 nM (% Inhibition), N = 1 [16]: 73%; KDR tyrosine phosphorylation in HUVEC, Maximum Inhibition at 100 nM (% Inhibition), N = 2 [16]: 75% |
